The values that follow come from patent publication US20260217833A1 (APTEVO RESEARCH AND DEVELOPMENT, published 2026).

Sequences and labels used below:
B1: CD4001079 (bispecific antibody)
Fc-Knob x CD40_2H7: EPKSSDKTHTCPPCPAPPAAAPSVFLFPPKPKDTLMISRTPEVTCVVVDVSHEDPEVKFNWYVDGVEVHNAKTKPREEQYNSTYRVVSVLTVLHQDWLNGKEYKCAVSNKALPAPIEKTISKAKGQPREPQVYTLPPSRDELTKNQVSLWCLVKGFYPSDIAVEWESNGQPENNYKTTPPVLDSDGSFFLYSKLTVDKSRWQQGNVFSCSVMHEALHNHYTQKSLSLSPGGGGSPSDIVMTQSHKFMSTSVGDRVSITCKASQDVNTAVAWYQQKPGQSPKLLIYSASYRYTGVPDRFTGSGSGTDFTFTISSVQAEDLAVYYCQQHYSTPWTFGGGTKLEIKGGGGSGGGGSGGGGSGGGGSQVQLQQSGAELAKPGASVKMSCKASGYAFTTYWMHWVKQRPGQGLEWIGYINPTTGYTDYNQKFKDKATLTADKSSSTAYMQLSSLTSEDSAVYYCARWGLPPFAYWGQGTLVTVSA
PDL_5F9 x Fc-Hole x CD40_2H7: EVQLVESGGGLVKPGGSLRLSCAASGFTFSDYGMAWVRQAPGKGLEWVAFITSLAYIIYYADSVKGRFTISRDNAKNSLYLQMNSLRAEDTAVYYCARNYGSSPYYFDYWGQGTLVTVSSGGGGSGGGGSGGGGSGGGGSDIQMTQSPSSLSASVGDRVTITCRASQDINKFLSWYQQKPGKAPKLLIHYTSSLQPGVPSRFSGSGSGTDFTLTISSLQPEDFATYYCLQYDNLYTFGQGTKLEIKEPKSSDKTHTCPPCPAPPAAAPSVFLFPPKPKDTLMISRTPEVTCVVVDVSHEDPEVKFNWYVDGVEVHNAKTKPREEQYNSTYRVVSVLTVLHQDWLNGKEYKCAVSNKALPAPIEKTISKAKGQPREPQVYTLPPSRDELTKNQVSLSCAVKGFYPSDIAVEWESNGQPENNYKTTPPVLDSDGSFFLVSKLTVDKSRWQQGNVFSCSVMHEALHNRFTQKSLSLSPGGGGSPSDIVMTQSHKFMSTSVGDRVSITCKASQDVNTAVAWYQQKPGQSPKLLIYSASYRYTGVPDRFTGSGSGTDFTFTISSVQAEDLAVYYCQQHYSTPWTFGGGTKLEIKGGGGSGGGGSGGGGSGGGGSQVQLQQSGAELAKPGASVKMSCKASGYAFTTYWMHWVKQRPGQGLEWIGYINPTTGYTDYNQKFKDKATLTADKSSSTAYMQLSSLTSEDSAVYYCARWGLPPFAYWGQGTLVTVSA
B2: CD4001064 (PDL_5F9 x hFc x CD40_2H7) (bispecific antibody)
chain: EVQLVESGGGLVKPGGSLRLSCAASGFTFSDYGMAWVRQAPGKGLEWVAFITSLAYIIYYADSVKGRFTISRDNAKNSLYLQMNSLRAEDTAVYYCARNYGSSPYYFDYWGQGTLVTVSSGGGGSGGGGSGGGGSGGGGSDIQMTQSPSSLSASVGDRVTITCRASQDINKFLSWYQQKPGKAPKLLIHYTSSLQPGVPSRFSGSGSGTDFTLTISSLQPEDFATYYCLQYDNLYTFGQGTKLEIKEPKSSDKTHTCPPCPAPPAAAPSVFLFPPKPKDTLMISRTPEVTCVVVDVSHEDPEVKFNWYVDGVEVHNAKTKPREEQYNSTYRVVSVLTVLHQDWLNGKEYKCAVSNKALPAPIEKTISKAKGQPREPQVYTLPPSRDELTKNQVSLTCLVKGFYPSDIAVEWESNGQPENNYKTTPPVLDSDGSFFLYSKLTVDKSRWQQGNVFSCSVMHEALHNHYTQKSLSLSPGGGGSPSDIVMTQSHKFMSTSVGDRVSITCKASQDVNTAVAWYQQKPGQSPKLLIYSASYRYTGVPDRFTGSGSGTDFTFTISSVQAEDLAVYYCQQHYSTPWTFGGGTKLEIKGGGGSGGGGSGGGGSGGGGSQVQLQQSGAELAKPGASVKMSCKASGYAFTTYWMHWVKQRPGQGLEWIGYINPTTGYTDYNQKFKDKATLTADKSSSTAYMQLSSLTSEDSAVYYCARWGLPPFAYWGQGTLVTVSA
notes: ADAPTIR format, anti-PD-L1 scFv on N-terminus, anti-CD40 scFv on C-terminus; also called CD4001064 (2H7)
B3: CD4001066 (PDL_5F9 x hFc x CD40_1D5) (bispecific antibody)
chain: EVQLVESGGGLVKPGGSLRLSCAASGFTFSDYGMAWVRQAPGKGLEWVAFITSLAYIIYYADSVKGRFTISRDNAKNSLYLQMNSLRAEDTAVYYCARNYGSSPYYFDYWGQGTLVTVSSGGGGSGGGGSGGGGSGGGGSDIQMTQSPSSLSASVGDRVTITCRASQDINKFLSWYQQKPGKAPKLLIHYTSSLQPGVPSRFSGSGSGTDFTLTISSLQPEDFATYYCLQYDNLYTFGQGTKLEIKEPKSSDKTHTCPPCPAPPAAAPSVFLFPPKPKDTLMISRTPEVTCVVVDVSHEDPEVKFNWYVDGVEVHNAKTKPREEQYNSTYRVVSVLTVLHQDWLNGKEYKCAVSNKALPAPIEKTISKAKGQPREPQVYTLPPSRDELTKNQVSLTCLVKGFYPSDIAVEWESNGQPENNYKTTPPVLDSDGSFFLYSKLTVDKSRWQQGNVFSCSVMHEALHNHYTQKSLSLSPGGGGSPSDIVMSQSPSSLAVSVGEKVTMSCKSSQSLLFSVNQKNYLAWYQQKPGQSPKLLIYWASTRESGVPDRFTGSGSGTDFTLTIGSVKAEDLAVYYCQHYYSYPWTFGGGTKLEIKGGGGSGGGGSGGGGSGGGGSQVQLQQSGAELMNPGASVRISCKATGYTFSTSWIEWIKQRPGHGLEWIGEILPGSGSTNYNEKFKGKATFTADTSSNTAYMQLSSLTFEDSAVYYCARGDDGSYVRWYFDVWGAGTTVTVSS
notes: ADAPTIR format, anti-PD-L1 scFv on N-terminus, anti-CD40 scFv on C-terminus; also called CD4001066 (1D5)
B4: CD4001070 (bispecific antibody)
Fc-Knob x PDL_5F9: EPKSSDKTHTCPPCPAPPAAAPSVFLFPPKPKDTLMISRTPEVTCVVVDVSHEDPEVKFNWYVDGVEVHNAKTKPREEQYNSTYRVVSVLTVLHQDWLNGKEYKCAVSNKALPAPIEKTISKAKGQPREPQVYTLPPSRDELTKNQVSLWCLVKGFYPSDIAVEWESNGQPENNYKTTPPVLDSDGSFFLYSKLTVDKSRWQQGNVFSCSVMHEALHNHYTQKSLSLSPGGGGSPSEVQLVESGGGLVKPGGSLRLSCAASGFTFSDYGMAWVRQAPGKGLEWVAFITSLAYIIYYADSVKGRFTISRDNAKNSLYLQMNSLRAEDTAVYYCARNYGSSPYYFDYWGQGTLVTVSSGGGGSGGGGSGGGGSGGGGSDIQMTQSPSSLSASVGDRVTITCRASQDINKFLSWYQQKPGKAPKLLIHYTSSLQPGVPSRFSGSGSGTDFTLTISSLQPEDFATYYCLQYDNLYTFGQGTKLEIK
CD40_2H7 x Fc-Hole x PDL_5F9: DIVMTQSHKFMSTSVGDRVSITCKASQDVNTAVAWYQQKPGQSPKLLIYSASYRYTGVPDRFTGSGSGTDFTFTISSVQAEDLAVYYCQQHYSTPWTFGGGTKLEIKGGGGSGGGGSGGGGSGGGGSQVQLQQSGAELAKPGASVKMSCKASGYAFTTYWMHWVKQRPGQGLEWIGYINPTTGYTDYNQKFKDKATLTADKSSSTAYMQLSSLTSEDSAVYYCARWGLPPFAYWGQGTLVTVSAEPKSSDKTHTCPPCPAPPAAAPSVFLFPPKPKDTLMISRTPEVTCVVVDVSHEDPEVKFNWYVDGVEVHNAKTKPREEQYNSTYRVVSVLTVLHQDWLNGKEYKCAVSNKALPAPIEKTISKAKGQPREPQVYTLPPSRDELTKNQVSLSCAVKGFYPSDIAVEWESNGQPENNYKTTPPVLDSDGSFFLVSKLTVDKSRWQQGNVFSCSVMHEALHNRFTQKSLSLSPGGGGSPSEVQLVESGGGLVKPGGSLRLSCAASGFTFSDYGMAWVRQAPGKGLEWVAFITSLAYIIYYADSVKGRFTISRDNAKNSLYLQMNSLRAEDTAVYYCARNYGSSPYYFDYWGQGTLVTVSSGGGGSGGGGSGGGGSGGGGSDIQMTQSPSSLSASVGDRVTITCRASQDINKFLSWYQQKPGKAPKLLIHYTSSLQPGVPSRFSGSGSGTDFTLTISSLQPEDFATYYCLQYDNLYTFGQGTKLEIK
B5: CD4001073 (bispecific antibody)
CD40_2H7 x Fc-Knob: DIVMTQSHKFMSTSVGDRVSITCKASQDVNTAVAWYQQKPGQSPKLLIYSASYRYTGVPDRFTGSGSGTDFTFTISSVQAEDLAVYYCQQHYSTPWTFGGGTKLEIKGGGGSGGGGSGGGGSGGGGSQVQLQQSGAELAKPGASVKMSCKASGYAFTTYWMHWVKQRPGQGLEWIGYINPTTGYTDYNQKFKDKATLTADKSSSTAYMQLSSLTSEDSAVYYCARWGLPPFAYWGQGTLVTVSAEPKSSDKTHTCPPCPAPPAAAPSVFLFPPKPKDTLMISRTPEVTCVVVDVSHEDPEVKFNWYVDGVEVHNAKTKPREEQYNSTYRVVSVLTVLHQDWLNGKEYKCAVSNKALPAPIEKTISKAKGQPREPQVYTLPPSRDELTKNQVSLWCLVKGFYPSDIAVEWESNGQPENNYKTTPPVLDSDGSFFLYSKLTVDKSRWQQGNVFSCSVMHEALHNHYTQKSLSLSPG
CD40_2H7 x Fc-Hole x PDL_5F9: DIVMTQSHKFMSTSVGDRVSITCKASQDVNTAVAWYQQKPGQSPKLLIYSASYRYTGVPDRFTGSGSGTDFTFTISSVQAEDLAVYYCQQHYSTPWTFGGGTKLEIKGGGGSGGGGSGGGGSGGGGSQVQLQQSGAELAKPGASVKMSCKASGYAFTTYWMHWVKQRPGQGLEWIGYINPTTGYTDYNQKFKDKATLTADKSSSTAYMQLSSLTSEDSAVYYCARWGLPPFAYWGQGTLVTVSAEPKSSDKTHTCPPCPAPPAAAPSVFLFPPKPKDTLMISRTPEVTCVVVDVSHEDPEVKFNWYVDGVEVHNAKTKPREEQYNSTYRVVSVLTVLHQDWLNGKEYKCAVSNKALPAPIEKTISKAKGQPREPQVYTLPPSRDELTKNQVSLSCAVKGFYPSDIAVEWESNGQPENNYKTTPPVLDSDGSFFLVSKLTVDKSRWQQGNVFSCSVMHEALHNRFTQKSLSLSPGGGGSPSEVQLVESGGGLVKPGGSLRLSCAASGFTFSDYGMAWVRQAPGKGLEWVAFITSLAYIIYYADSVKGRFTISRDNAKNSLYLQMNSLRAEDTAVYYCARNYGSSPYYFDYWGQGTLVTVSSGGGGSGGGGSGGGGSGGGGSDIQMTQSPSSLSASVGDRVTITCRASQDINKFLSWYQQKPGKAPKLLIHYTSSLQPGVPSRFSGSGSGTDFTLTISSLQPEDFATYYCLQYDNLYTFGQGTKLEIK
B6: CD4001049 (bispecific antibody)
scFv-Fc-scFv chain: DIVMSQSPSSLAVSVGEKVTMSCKSSQSLLFSVNQKNYLAWYQQKPGQSPKLLIYWASTRESGVPDRFTGSGSGTDFTLTIGSVKAEDLAVYYCQHYYSYPWTFGGGTKLEIKGGGGSGGGGSGGGGSGGGGSQVQLQQSGAELMNPGASVRISCKATGYTFSTSWIEWIKQRPGHGLEWIGEILPGSGSTNYNEKFKGKATFTADTSSNTAYMQLSSLTFEDSAVYYCARGDDGSYVRWYFDVWGAGTTVTVSSEPKSSDKTHTCPPCPAPPAAAPSVFLFPPKPKDTLMISRTPEVTCVVVDVSHEDPEVKFNWYVDGVEVHNAKTKPREEQYNSTYRVVSVLTVLHQDWLNGKEYKCAVSNKALPAPIEKTISKAKGQPREPQVYTLPPSRDELTKNQVSLTCLVKGFYPSDIAVEWESNGQPENNYKTTPPVLDSDGSFFLYSKLTVDKSRWQQGNVFSCSVMHEALHNHYTQKSLSLSPGGGGSPSEVQLVESGGGLVKPGGSLRLSCAASGFTFSDYGMAWVRQAPGKGLEWVAFITSLAYIIYYADSVKGRFTISRDNAKNSLYLQMNSLRAEDTAVYYCARNYGSSPYYFDYWGQGTLVTVSSGGGGSGGGGSGGGGSGGGGSDIQMTQSPSSLSASVGDRVTITCRASQDINKFLSWYQQKPGKAPKLLIHYTSSLQPGVPSRFSGSGSGTDFTLTISSLQPEDFATYYCLQYDNLYTFGQGTKLEIK
notes: also called CD40_1D5 x hFc x PDL_5F9

In this test the target is T1, Human PD-L1 full-length (human, UniProt Q9NZQ7 19-290).
T1 construct: also called PDL01021; CHOK1SV/huPDL1
T1 sequence (Q9NZQ7 19-290): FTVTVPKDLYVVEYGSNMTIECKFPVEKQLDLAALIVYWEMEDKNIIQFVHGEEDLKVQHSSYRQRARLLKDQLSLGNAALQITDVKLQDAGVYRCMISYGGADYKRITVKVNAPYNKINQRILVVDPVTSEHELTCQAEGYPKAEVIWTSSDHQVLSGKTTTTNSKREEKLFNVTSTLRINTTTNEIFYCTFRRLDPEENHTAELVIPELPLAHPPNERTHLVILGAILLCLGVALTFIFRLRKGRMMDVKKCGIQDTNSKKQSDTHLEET
In words: flow cytometry, CHOK1SV/human PD-L1 cells. (In general: In flow cytometry, cells or beads pass a laser one at a time.)
Turning to B1, the binding result was “binds”.
The result for B2 reads “binds”; that for B3, “binds”; that for B4, “binds”.
The result for B5 reads “binds”; that for B6, “binds”.
